Measurements reported in patent US20200392528A1, “IMPROVED PLANT EPSP SYNTHASES AND METHODS OF USE” (PIONEER HI-BRED INTERNATIONAL, INC., priority 2017, published 2020).
Like-named read-outs stand apart in the source and are kept apart here.

How the values were obtained:
maize EPSPS [1] = assay: substrate saturation kinetic analysis (kcat, KM PEP, KI glyphosate); format: biochemical; settings: for kcat/Km*Ki: calculated with Km for PEP
Experimental: (§1) EPSPS activity was determined by quantifying the phosphate generated from the EPSPS reaction. Release of inorganic phosphate was coupled to its reaction with 2-amino-6-mercapto-7-methylpurine ribonucleoside (MESG), catalyzed by purine nucleoside phosphorylase, according to previously described protocols. To determine the kcat gly, enzyme preparations were normalized to 0.1 mg/ml and four- to six-microliter aliquots of normalized enzyme were added to the wells of a low UV-absorbing 96-well assay plate (Greiner UV-Star). Reactions were started with the addition of 2×147 μl of reaction mixture containing 25 mM Hepes, pH 7.0, 100 mM KCl, 5% ethylene glycol, 30 μM each of PEP and S3P, 0.15 mM MESG, 1.5 U/ml purine nucleoside phosphorylase (Sigma N8264) and 1 mM glyphosate. Absorbance was monitored at 4 sec intervals for 50 sec with a Spectramax plate reader (Molecular Devices). […] Division by the enzyme concentration (0.04 to 0.1 uM, depending on activity) yields “kcat gly” in units of min^−1.
(§2) Approximately 30 substitutions were designed into each library. Assuming an average incorporation rate of six substitutions per variant, the theoretical size of such libraries is ˜7×10^5. Libraries were screened using methods described previously and the enhanced method described in Example 2. The number of colony-forming units plated and screened was in the range of 50 to 100% of the theoretical size. Up to 200 colonies per library were picked for evaluation of the expressed variant. Proteins were purified as described previously in PCT/US2016/054399, incorporated herein by reference. Protein concentration was determined by measuring optical density at 280 nm. The extinction coefficient of native maize EPSPS (0.676 OD/mg/ml) was calculated by vNTI and used to convert OD280 to mg/ml. Kinetic parameters were determined as described in Example 1.
Combinatorial shuffling, maize native EPSPS—The mutations discovered were used to construct a combinatorial library designed to explore combinations of the desensitizing mutations in novel sequence contexts provided by the newly identified neutral mutations. Note that the amino acid position numbering in this Example 10 refers to the relative position of native maize EPSPS without the N-terminal Met. Therefore, G101A in this Example would be G102A in reference to SEQ ID NO: 1, wherein the maize EPSPS sequence has a Met added at the N-terminal. The diversity used was the same with the addition of G101A, T102 (IALGV) and P106(WA). In all, 43 substitutions at 29 positions were selected. The library was synthesized entirely from oligonucleotides, using the known technique of synthetic shuffling and was termed NatFS (Native, fully synthetic). The vector DNA of the library was transformed into the BL21(DE3) Tuner-AroA knockout strain and the cells were plated onto M9 medium containing either 30 mM glyphosate and 30 μM of the lac operon inducer isopropyl β-D-1-thiogalactopyranoside (IPTG) or 50 mM glyphosate and no IPTG. The 184 colonies that grew on either plate were picked and subjected to a second tier of screening in which EPSPS proteins were purified and activity measured at high (200 μM) and low (50 μM) PEP and S3P, with or without 10 μM glyphosate. Selected variants were subjected to substrate saturation kinetic analysis.

maize EPSPS [2] = assay: kcat gly / kgly: enzyme turnover under application conditions (30 μM PEP and S3P, 1 mM glyphosate), phosphate release coupled to MESG; format: biochemical
Experimental: A more straight-forward, accurate and meaningful parameter is one in which one rate measurement is performed under presumed in vivo conditions, if known. To establish a set of conditions that mimic those under which the mutated enzyme needs to perform, the concentrations of PEP and S3P were set low (30 uM, subject to the sensitivity of assay conditions) to approach the presumed intracellular concentrations (˜15 uM, the approximate values of KM for both PEP and S3P). Glyphosate is included at 1 mM. The pH is set at 7.0 and ionic strength at 100 mM KCl, also to mimic known in vivo conditions. Ethylene glycol is present at 5% (v/v) to approximate the dielectric constant of intracellular fluid. The parameter is termed “enzyme turnover under application conditions”, which is herein shortened to “kcat gly”. The conventional formatting of the expression “kcat” is not used, to avoid this term being characterized as a standard kinetic constant.
as §1, §2
A customized parameter for predicting performance in the treated plant that would be a more accurate representation than kcat/Km*Ki. […] However, kcat/Km*Ki may be inadequate for predicting the reaction velocity under the conditions of the application (plants sprayed with glyphosate) because it may neglect concentrations of substrate and inhibitor, factors that are not intrinsic to the enzyme, but on which the reaction rate depends. Therefore, libraries derived from C1 on in FIG. 2 were evaluated with a single rate measurement designed to take all factors in the rate equation for competitive inhibition into account. […] Glyphosate was included at 1 mM, a concentration attainable in tissues, especially meristems, receiving metabolite flow from treated leaves. The pH (7.0), ionic strength (100 mM KCl) and co-solvent concentration (5% ethylene glycol) were also intended to mimic in vivo conditions. The unit for the parameter is reaction rate (μM·min^−1) per enzyme concentration (μM), or min^−1, describing the enzyme turnover under application conditions, which we abbreviate as “kgly”. […]

[3] = Table 2, KM for PEP, read-out: KM
[4] = Table 2, discrimination between glyphosate and PEP
[5] = apparent Km, PEP present at 10 times its Km, read-out: Km S3P
[6] = apparent Km, S3P present at 10 times its Km, read-out: Km PEP
[7] = Table 2, 30 μM PEP and S3P, 1 mM glyphosate, pH 7.0

Molecule	Ki (maize EPSPS [1]; Ki for glyphosate)	kcat (maize EPSPS [1]; Table 2)	kcat/KM*KI (maize EPSPS [1]; Table 2)	Km (maize EPSPS [1]; [3])	KI/KM (maize EPSPS [1]; [4])	Ki (maize EPSPS [1]; Table 2, inhibitor glyphosate)	Km (maize EPSPS [1]; [5])	Km (maize EPSPS [1]; [6])	kcat/Km*Ki (maize EPSPS [1])	kcat (maize EPSPS [1]; maize EPSPS variants)	kcat gly (maize EPSPS [2]; [7])	other results
G102A: maize EPSPS with G102A mutation (G101A when numbered without N-terminal Met) (protein, Zea mays) MAGAEEIVLQPIKEISGTVKLPGSKSLSNRILLLAALSEGTTVVDNLLNSEDVHYMLGALRTLGLSVEADKAAKRAVVVGCGGKFPVEDAKEEVQLFLGNAATAMRPLTAAVTAAGGNATYVLDGVPRMRERPIGDLVVGLKQLGADVDCFLGTDCPPVRVNGIGGLPGGKVKLSGSISSQYLSALLMAAPLALGDVEIEIIDKLISIPYVEMTLRLMERFGVKAEHSDSWDRFYIKGGQKYKSPKNAYVEGDASSASYFLAGAAITGGTVTVEGCGTTSLQGDVKFAEVLEMMGAKVTWTETSVTVTGPPREPFGRKHLKAIDVNMNKMPDVAMTLAVVALFADGPTAIRDVASWRVKETERMVAIRTELTKLGASVEEGPDYCIITPPEKLNVTAIDTYDDHRMAMAFSLAACAEVPVTIRDPGCTRKTFPDYFDVLSTFVKN	1930 ± 40 µM	10.2 s⁻¹	3176	315 µM	5.11	1610 µM	84 ± 2.5 µM	333 ± 26 µM	5780	16.67 ± 0.583 s⁻¹	0.203 s⁻¹	increase in Ki for glyphosate (maize EPSPS [1]; relative to native EPSPS): 30,00 fold; increase in Km for PEP (maize EPSPS [1]; relative to native EPSPS): 35 fold; KI/KM (maize EPSPS [1]; text b176): 5.1; kgly (maize EPSPS [2]; enzyme turnover at 30 μM PEP and S3P, 1 mM glyphosate): 25.7 ± 0.2 min⁻¹
Zm native: native maize EPSPS with added N-terminal Met, SEQ ID NO: 1, reference EPSPS sequence (protein, Zea mays) MAGAEEIVLQPIKEISGTVKLPGSKSLSNRILLLAALSEGTTVVDNLLNSEDVHYMLGALRTLGLSVEADKAAKRAVVVGCGGKFPVEDAKEEVQLFLGNAGTAMRPLTAAVTAAGGNATYVLDGVPRMRERPIGDLVVGLKQLGADVDCFLGTDCPPVRVNGIGGLPGGKVKLSGSISSQYLSALLMAAPLALGDVEIEIIDKLISIPYVEMTLRLMERFGVKAEHSDSWDRFYIKGGQKYKSPKNAYVEGDASSASYFLAGAAITGGTVTVEGCGTTSLQGDVKFAEVLEMMGAKVTWTETSVTVTGPPREPFGRKHLKAIDVNMNKMPDVAMTLAVVALFADGPTAIRDVASWRVKETERMVAIRTELTKLGASVEEGPDYCIITPPEKLNVTAIDTYDDHRMAMAFSLAACAEVPVTIRDPGCTRKTFPDYFDVLSTFVKN	0.066 ± 0.003 µM	24.4 s⁻¹	11.8	15.7 µM	0.008	0.13 µM	13.2 ± 0.6 µM	9.5 ± 0.3 µM	11	27.17 ± 0.233 s⁻¹	0 s⁻¹	kcat/KM*KI (maize EPSPS [1]): 11.8; Km (maize EPSPS [1]; approximate value, read-out: Km for S3P): 10 to 15 µM; Ki (maize EPSPS [1]; glyphosate, text b235): 0.066 µM; Km (maize EPSPS [1]; read-out: Km for PEP): 10 to 15 µM
Zm D2: maize EPSPS variant, SEQ ID NO: 10 (protein, Zea mays) MRGWEEIVLQPIKEISGTVKLPGSKSLSNRILLLAALSEGTTVVDNLLNSEDVHYMLGALRTLGLSVEHDKAAKRAVVVGCGGRFPVEDAKGEVQLFCGNAATAMRPLTAAVTAAGGNATYVLDGVPRMRERPIGDLVVGLKQLGADVDCFLGTDCPPVRVNGIGGLPGGKVKLSGSISSQYLSALLMAAPLALGDVEIEIIDKLISLPYVEMTLRLMERFGVKAEHSDSWDRFYIKGGQKYESPKNAYVEGDASSASYFLAGAAITGGTVTVEGCGTTSLQGDVKFAEVLEMMGAKVTWTETSVTVTGPPREPFGRKHLKAIDVNMNKMPDAAMTLAVVALFADGPTAIRDVASWRVKETERMVAIRTELTKLGASVEEGPDYCIITPPPKLNVTAIDTYGDHRMAMAFSLAACAEVPVTIRDPGCTRKTFPDYFDVLSTFVKN		6.07 s⁻¹	18100	20 µM	49.7	993 µM					1.72 s⁻¹	kcat gly (maize EPSPS [2]; Table 5, maize variants): 1.9 s⁻¹; Zm/Os (maize EPSPS [2]; Table 5, ratio of kcat gly, maize variant to rice ortholog): 1.28
Zm D2-15: maize EPSPS variant, SEQ ID NO: 9 (protein, Zea mays) MRGWEEIVLQPIKEISGTVKLPGSKSLSNRILLLAALAEGTTVVDNLLNSEDVHYMLGALRTLGLSVEHDKAAKRAVVVGCGGRFPVEDAKEEVQLFCGNAATAMRPLTAAVTAAGGNATYVLDGVPRMRERPIGDLVVGLKQLGADVDCFLGTDCPPVRVNGIGGLPGGKVKLSGSISSQYLSALLMAAPLALGDVEIEIIDKLISLPYVEMTLRLMERFGVKAEHNDSWDRFYIKGGQKYESPKNAYVEGDASSASYFLAGAAITGGTVTVEGCGTTSLQGDVKFAEVLEMMGAKVTWTETSVTVSGPPREPFGRKHLKAIDVNMNKMPDAAMTLAVVALFADGPTAIRDVASWRVKETERMVAICTELTKLGASVEEGPDYCIITPPPKLNVTAIDTYGDHRMAMAFSLAACAEVPVTIRDPGCTRKTFPDYFDVLSTFVKN		7.87 s⁻¹	36400	21.8 µM	77.1	1680 µM					1.7 s⁻¹	
Zm D2-64: maize EPSPS variant, SEQ ID NO: 7 (protein, Zea mays) MRKWEEIVLQPIKEISGTVKLPGSKSLSNRILLLAALSEGTTVVDNLLNSEDVLYMLGALRTLGLSVEHDKAAKRAVVVGCGGRFPVEDAKGEVQLFCGNAATAMRPLTAAVTAAGGNATYVLDGVPRMRERPIGDLVVGLKQLGADVDCFLGTDCPPVRVNGIGGLPGGKVKLSGSISSQYLSALLMAAPLALGDVEIEIIDKLISLPYVEMTLRLMERFGVKAEHSDSWDRFYIKGGQKYESPKNAYVEGDASSASYFLAGAAITGGTVTVEGCGTTSLQGDVKFAEVLEMMGAKVTWTETSVTVTGPPREPFGRKHLKAIDVNMNKMPDAAMTLAVVALFADGPTAIRDVASWRVKETERMVAICTELTKLGASVEEGPDYCIITPPPKLNVTAIDTYGDHRMAMAFSLAACAEVPVTIRDPGCTRKTFPDYFDVLSTFVKN		7.97 s⁻¹	22900	19.6 µM	47.9	938 µM					1.68 s⁻¹	
